Assay [1] has as its target native murine IL-1 receptor of EL-4 6.1 C10 cells (murine).
Assay [2] addresses T1, recombinant human IL-1α (polypeptide composed of the C-terminal 157 residues of IL-1α, Mr 17,500 form) (human, UniProt P01583, 125I label (chloramine-T method, ca 1 atom of iodine per IL-1α molecule) where used as tracer; fluorescein isothiocyanate conjugate in flow cytometry; unlabeled as competitor; coupled to Sepharose 4B …).
T1 sequence: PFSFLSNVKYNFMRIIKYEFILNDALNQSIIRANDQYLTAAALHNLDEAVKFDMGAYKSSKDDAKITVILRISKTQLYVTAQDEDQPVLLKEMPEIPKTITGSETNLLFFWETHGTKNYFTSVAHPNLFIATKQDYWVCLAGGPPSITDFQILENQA
As to the kind of experiment: direct binding of 125I-IL-1α to COS cells transfected with clone 78, Scatchard analysis.

The target of assay [3] is T1, recombinant human IL-1α (polypeptide …). Kind of assay: direct binding of 125I-IL-1α to EL-4 6.1 C10 cells, Scatchard analysis.
The target is the same in assay [4]. As to the kind of experiment: receptor in Triton X-100 solution (diluted extract) inhibiting 125I-IL-1α binding to extract on nitrocellulose; competitive inhibition model.

The molecule “recombinant human IL-1α (polypeptide composed of the C-terminal 157 residues of IL-1α, Mr 17,500 form) (from UniProt P01583) (ligand)” showed an IL-2 production from EL-4 6.1 C10 cells in assay [1] of 100%.

B1: recombinant murine IL-1 receptor (clone 78 in pDC201) expressed on COS cells (receptor)
chain: LEIDVCTEYPNQIVLFLSVNEIDIRKCPLTPNKMHGDTIIWYKNDSKTPISADRDSRIHQQNEHLWFVPAKVEDSGYYYCIVRNSTYCLKTKVTVTVLENDPGLCYSTQATFPQRLHIAGDGSLVCPYVSYFKDENNELPEVQWYKNCKPLLLDNVSFFGVKDKLLVRNVAEEHRGDYICRMSYTFRGKQYPVTRVIQFITIDENKRDRPVILSPRNETIEADPGSMIQLICNVTGQFSDLVYWKWNGSEIEWNDPFLAEDYQFVEHPSTKRKYTLITTLNISEVKSQFYRYPFICVVKNTNIFESAHVQLIYPVPDFKNYLIGGFIILTATIVCCVCIYKVFKVDIVLWYRDSCSGFLPSKASDGKTYDAYILYPKTLGEGSFSDLDTFVFKLLPEVLEGQFGYKLFIYGRDDYVGEDTIEVTNENVKKSRRLIIILVRDMGGFSWLGQSSEEQIAIYNALIQEGIKIVLLELEKIQDYEKMPDSIQFIKQKHGVICWSGDFQERPQSAKTRFWKNLRYQMPAQRRSPLSKHRLLTLDPVRDTKEKLPAATHLPLG
As to B1, the Ka in assay [2] came out at 3e+09 M⁻¹.

B2: native murine IL-1 receptor of EL-4 6.1 C10 cells (receptor)
chain: LEIDVCTEYPNQIVLFLSVNEIDIRKCPLTPNKMHGDTIIWYKNDSKTPISADRDSRIHQQNEHLWFVPAKVEDSGYYYCIVRNSTYCLKTKVTVTVLENDPGLCYSTQATFPQRLHIAGDGSLVCPYVSYFKDENNELPEVQWYKNCKPLLLDNVSFFGVKDKLLVRNVAEEHRGDYICRMSYTFRGKQYPVTRVIQFITIDENKRDRPVILSPRNETIEADPGSMIQLICNVTGQFSDLVYWKWNGSEIEWNDPFLAEDYQFVEHPSTKRKYTLITTLNISEVKSQFYRYPFICVVKNTNIFESAHVQLIYPVPDFKNYLIGGFIILTATIVCCVCIYKVFKVDIVLWYRDSCSGFLPSKASDGKTYDAYILYPKTLGEGSFSDLDTFVFKLLPEVLEGQFGYKLFIYGRDDYVGEDTIEVTNENVKKSRRLIIILVRDMGGFSWLGQSSEEQIAIYNALIQEGIKIVLLELEKIQDYEKMPDSIQFIKQKHGVICWSGDFQERPQSAKTRFWKNLRYQMPAQRRSPLSKHRLLTLDPVRDTKEKLPAATHLPLG
modifications: glycoprotein (N-linked carbohydrate), Mr 82,000
In the case of B2, the values for the Ka in assay [3] and in assay [4] were 4.3e+09 M⁻¹ and 4.5e+09 M⁻¹, respectively.

The record behind these values is US5319071, “Soluble interleukin-1 receptors” (Immunex Corporation, dated 1994).
